Reference: US20250327097A1, “ORGANISMS PRODUCING LESS CROTONIC ACID” (Global Bioenergies, priority 2021, published 2025)

System: 3-methylcrotonic acid
Type: biochemical, Yersinia frederiksenii
Set-up: key: “+” representing a low increase in activity; “++++” representing a high increase in activity

Row | Molecule | Activity relative to WT
1 | N388M-L432F-L434W-S436N (protein) MFLKSLREQINLLKRQGDLRIINRPVDSYLEAAAIIRRSTETKAPVPLMTNIKGYPGCSIVGGLAALSSNPEYPLSRVAMSLGLSTTASAQSIVQYLIDGLKKTPYLPVEIDSNSAPCKQNILRGEDASLAHFPIPQVHQHDGNRYVNTWGVFIVESPDGQWCNWSIQRVQYLNDRQMIALVFPSQHISDIWEEWVKIGKPMPYALVQGCEPIVPYIAGLPLLERNVNEAEYIGALYGKGIEVVKCETHDLRVPASSEVVIEGYFAITREGVEGPFGEFAGYIPNENSLQPILSITAISWQDDPIWPVVAEGKPVDEYHTCSGIGDAAAIQNVLLTANLPVSFVWVPLYSACHLMIVSINRHWRQTHPDLTSEQLTKKVGDVIHQTRMSIKLPKIVVLDDDVDPADTESLLWALATRIHPERKRYFYESCIFPWLNCYSEEERHNRKGKRVIIDALLPENHGAISSFDYAYPDDIKQRVLMHWETDFSHD | +
2 | N388M-C430S-L432F-L434W-S436A (protein) MFLKSLREQINLLKRQGDLRIINRPVDSYLEAAAIIRRSTETKAPVPLMTNIKGYPGCSIVGGLAALSSNPEYPLSRVAMSLGLSTTASAQSIVQYLIDGLKKTPYLPVEIDSNSAPCKQNILRGEDASLAHFPIPQVHQHDGNRYVNTWGVFIVESPDGQWCNWSIQRVQYLNDRQMIALVFPSQHISDIWEEWVKIGKPMPYALVQGCEPIVPYIAGLPLLERNVNEAEYIGALYGKGIEVVKCETHDLRVPASSEVVIEGYFAITREGVEGPFGEFAGYIPNENSLQPILSITAISWQDDPIWPVVAEGKPVDEYHTCSGIGDAAAIQNVLLTANLPVSFVWVPLYSACHLMIVSINRHWRQTHPDLTSEQLTKKVGDVIHQTRMSIKLPKIVVLDDDVDPADTESLLWALATRIHPERKRYFYESSIFPWLACYSEEERHNRKGKRVIIDALLPENHGAISSFDYAYPDDIKQRVLMHWETDFSHD | +
3 | N388M-K394R-L432F-L434W-S436A (protein) MFLKSLREQINLLKRQGDLRIINRPVDSYLEAAAIIRRSTETKAPVPLMTNIKGYPGCSIVGGLAALSSNPEYPLSRVAMSLGLSTTASAQSIVQYLIDGLKKTPYLPVEIDSNSAPCKQNILRGEDASLAHFPIPQVHQHDGNRYVNTWGVFIVESPDGQWCNWSIQRVQYLNDRQMIALVFPSQHISDIWEEWVKIGKPMPYALVQGCEPIVPYIAGLPLLERNVNEAEYIGALYGKGIEVVKCETHDLRVPASSEVVIEGYFAITREGVEGPFGEFAGYIPNENSLQPILSITAISWQDDPIWPVVAEGKPVDEYHTCSGIGDAAAIQNVLLTANLPVSFVWVPLYSACHLMIVSINRHWRQTHPDLTSEQLTKKVGDVIHQTRMSIKLPRIVVLDDDVDPADTESLLWALATRIHPERKRYFYESCIFPWLACYSEEERHNRKGKRVIIDALLPENHGAISSFDYAYPDDIKQRVLMHWETDFSHD | +
4 | C430P-L432F-L434W-S436N (protein) MFLKSLREQINLLKRQGDLRIINRPVDSYLEAAAIIRRSTETKAPVPLMTNIKGYPGCSIVGGLAALSSNPEYPLSRVAMSLGLSTTASAQSIVQYLIDGLKKTPYLPVEIDSNSAPCKQNILRGEDASLAHFPIPQVHQHDGNRYVNTWGVFIVESPDGQWCNWSIQRVQYLNDRQMIALVFPSQHISDIWEEWVKIGKPMPYALVQGCEPIVPYIAGLPLLERNVNEAEYIGALYGKGIEVVKCETHDLRVPASSEVVIEGYFAITREGVEGPFGEFAGYIPNENSLQPILSITAISWQDDPIWPVVAEGKPVDEYHTCSGIGDAAAIQNVLLTANLPVSFVWVPLYSACHLMIVSINRHWRQTHPDLTSEQLTKKVGDVIHQTRNSIKLPKIVVLDDDVDPADTESLLWALATRIHPERKRYFYESPIFPWLNCYSEEERHNRKGKRVIIDALLPENHGAISSFDYAYPDDIKQRVLMHWETDFSHD | +
5 | K394R-C430S-L432F-L434W-S436A (protein) MFLKSLREQINLLKRQGDLRIINRPVDSYLEAAAIIRRSTETKAPVPLMTNIKGYPGCSIVGGLAALSSNPEYPLSRVAMSLGLSTTASAQSIVQYLIDGLKKTPYLPVEIDSNSAPCKQNILRGEDASLAHFPIPQVHQHDGNRYVNTWGVFIVESPDGQWCNWSIQRVQYLNDRQMIALVFPSQHISDIWEEWVKIGKPMPYALVQGCEPIVPYIAGLPLLERNVNEAEYIGALYGKGIEVVKCETHDLRVPASSEVVIEGYFAITREGVEGPFGEFAGYIPNENSLQPILSITAISWQDDPIWPVVAEGKPVDEYHTCSGIGDAAAIQNVLLTANLPVSFVWVPLYSACHLMIVSINRHWRQTHPDLTSEQLTKKVGDVIHQTRNSIKLPRIVVLDDDVDPADTESLLWALATRIHPERKRYFYESSIFPWLACYSEEERHNRKGKRVIIDALLPENHGAISSFDYAYPDDIKQRVLMHWETDFSHD | +
6 | K394R-L432F-L434W-S436N (protein) MFLKSLREQINLLKRQGDLRIINRPVDSYLEAAAIIRRSTETKAPVPLMTNIKGYPGCSIVGGLAALSSNPEYPLSRVAMSLGLSTTASAQSIVQYLIDGLKKTPYLPVEIDSNSAPCKQNILRGEDASLAHFPIPQVHQHDGNRYVNTWGVFIVESPDGQWCNWSIQRVQYLNDRQMIALVFPSQHISDIWEEWVKIGKPMPYALVQGCEPIVPYIAGLPLLERNVNEAEYIGALYGKGIEVVKCETHDLRVPASSEVVIEGYFAITREGVEGPFGEFAGYIPNENSLQPILSITAISWQDDPIWPVVAEGKPVDEYHTCSGIGDAAAIQNVLLTANLPVSFVWVPLYSACHLMIVSINRHWRQTHPDLTSEQLTKKVGDVIHQTRNSIKLPRIVVLDDDVDPADTESLLWALATRIHPERKRYFYESCIFPWLNCYSEEERHNRKGKRVIIDALLPENHGAISSFDYAYPDDIKQRVLMHWETDFSHD | +
7 | N388M-C430P-L432F-L434W-S436A (protein) MFLKSLREQINLLKRQGDLRIINRPVDSYLEAAAIIRRSTETKAPVPLMTNIKGYPGCSIVGGLAALSSNPEYPLSRVAMSLGLSTTASAQSIVQYLIDGLKKTPYLPVEIDSNSAPCKQNILRGEDASLAHFPIPQVHQHDGNRYVNTWGVFIVESPDGQWCNWSIQRVQYLNDRQMIALVFPSQHISDIWEEWVKIGKPMPYALVQGCEPIVPYIAGLPLLERNVNEAEYIGALYGKGIEVVKCETHDLRVPASSEVVIEGYFAITREGVEGPFGEFAGYIPNENSLQPILSITAISWQDDPIWPVVAEGKPVDEYHTCSGIGDAAAIQNVLLTANLPVSFVWVPLYSACHLMIVSINRHWRQTHPDLTSEQLTKKVGDVIHQTRMSIKLPKIVVLDDDVDPADTESLLWALATRIHPERKRYFYESPIFPWLACYSEEERHNRKGKRVIIDALLPENHGAISSFDYAYPDDIKQRVLMHWETDFSHD | +
8 | N388M-C430S-L432F-L434W-S436N (protein) MFLKSLREQINLLKRQGDLRIINRPVDSYLEAAAIIRRSTETKAPVPLMTNIKGYPGCSIVGGLAALSSNPEYPLSRVAMSLGLSTTASAQSIVQYLIDGLKKTPYLPVEIDSNSAPCKQNILRGEDASLAHFPIPQVHQHDGNRYVNTWGVFIVESPDGQWCNWSIQRVQYLNDRQMIALVFPSQHISDIWEEWVKIGKPMPYALVQGCEPIVPYIAGLPLLERNVNEAEYIGALYGKGIEVVKCETHDLRVPASSEVVIEGYFAITREGVEGPFGEFAGYIPNENSLQPILSITAISWQDDPIWPVVAEGKPVDEYHTCSGIGDAAAIQNVLLTANLPVSFVWVPLYSACHLMIVSINRHWRQTHPDLTSEQLTKKVGDVIHQTRMSIKLPKIVVLDDDVDPADTESLLWALATRIHPERKRYFYESSIFPWLNCYSEEERHNRKGKRVIIDALLPENHGAISSFDYAYPDDIKQRVLMHWETDFSHD | +
9 | K394R-C430P-L432F-L434W-S436A (protein) MFLKSLREQINLLKRQGDLRIINRPVDSYLEAAAIIRRSTETKAPVPLMTNIKGYPGCSIVGGLAALSSNPEYPLSRVAMSLGLSTTASAQSIVQYLIDGLKKTPYLPVEIDSNSAPCKQNILRGEDASLAHFPIPQVHQHDGNRYVNTWGVFIVESPDGQWCNWSIQRVQYLNDRQMIALVFPSQHISDIWEEWVKIGKPMPYALVQGCEPIVPYIAGLPLLERNVNEAEYIGALYGKGIEVVKCETHDLRVPASSEVVIEGYFAITREGVEGPFGEFAGYIPNENSLQPILSITAISWQDDPIWPVVAEGKPVDEYHTCSGIGDAAAIQNVLLTANLPVSFVWVPLYSACHLMIVSINRHWRQTHPDLTSEQLTKKVGDVIHQTRNSIKLPRIVVLDDDVDPADTESLLWALATRIHPERKRYFYESPIFPWLACYSEEERHNRKGKRVIIDALLPENHGAISSFDYAYPDDIKQRVLMHWETDFSHD | +
10 | N388M-C430P-L432F-L434W-S436N (protein) MFLKSLREQINLLKRQGDLRIINRPVDSYLEAAAIIRRSTETKAPVPLMTNIKGYPGCSIVGGLAALSSNPEYPLSRVAMSLGLSTTASAQSIVQYLIDGLKKTPYLPVEIDSNSAPCKQNILRGEDASLAHFPIPQVHQHDGNRYVNTWGVFIVESPDGQWCNWSIQRVQYLNDRQMIALVFPSQHISDIWEEWVKIGKPMPYALVQGCEPIVPYIAGLPLLERNVNEAEYIGALYGKGIEVVKCETHDLRVPASSEVVIEGYFAITREGVEGPFGEFAGYIPNENSLQPILSITAISWQDDPIWPVVAEGKPVDEYHTCSGIGDAAAIQNVLLTANLPVSFVWVPLYSACHLMIVSINRHWRQTHPDLTSEQLTKKVGDVIHQTRMSIKLPKIVVLDDDVDPADTESLLWALATRIHPERKRYFYESPIFPWLNCYSEEERHNRKGKRVIIDALLPENHGAISSFDYAYPDDIKQRVLMHWETDFSHD | +
11 | C430S-L432F-L434W-S436N (protein) MFLKSLREQINLLKRQGDLRIINRPVDSYLEAAAIIRRSTETKAPVPLMTNIKGYPGCSIVGGLAALSSNPEYPLSRVAMSLGLSTTASAQSIVQYLIDGLKKTPYLPVEIDSNSAPCKQNILRGEDASLAHFPIPQVHQHDGNRYVNTWGVFIVESPDGQWCNWSIQRVQYLNDRQMIALVFPSQHISDIWEEWVKIGKPMPYALVQGCEPIVPYIAGLPLLERNVNEAEYIGALYGKGIEVVKCETHDLRVPASSEVVIEGYFAITREGVEGPFGEFAGYIPNENSLQPILSITAISWQDDPIWPVVAEGKPVDEYHTCSGIGDAAAIQNVLLTANLPVSFVWVPLYSACHLMIVSINRHWRQTHPDLTSEQLTKKVGDVIHQTRNSIKLPKIVVLDDDVDPADTESLLWALATRIHPERKRYFYESSIFPWLNCYSEEERHNRKGKRVIIDALLPENHGAISSFDYAYPDDIKQRVLMHWETDFSHD | +
